Key:
[1] = biological target: SARS-CoV-2 S receptor-binding domain (RBD), biotinylated (SARS-CoV-2, UniProt P0DTC2 330-531); experiment: BLI
[2] = biological target: biotinylated SARS-CoV RBD (SARS-CoV, UniProt P59594, biotin); experiment: BLI

B1: scFD20 (single-chain variable fragment of FD20) (scFv, V domains shown)
VH: QVQLQQSGAEVKKPGSSVKVSCKASGGTFSSYAFSWVRQAPGQGLEWMGRIIPILGIANYAQKFQGRVTITADISTSTAYMALSSLRSEDTAVYYCAKVEVNIGMDDYYYYYGMDVWGQGTTVTVSS
VL: not shown
koff [1]: 0.000664 s⁻¹
koff [2]: 0.00054 s⁻¹

From PMC8646660 (2021)
